Changes are numbered by the printed parent chain. In names and notes the source's numbering stands.
B1: γ1 T12G: γ1 single mutant containing just part of the GXXXA motif (protein, UniProt Q06432 1-222, looked up, variant T12G)
Voltage-dependent calcium …: MSQTKMLKVRVGLFCILAGIVLAMTAVVTDHWAVLSPHMEHHNTTCEAAHFGLWRICTKRIPMDDSKTCGPITLPGEKNCSYFRHFNPGESSEIFEFTTQKEYSISAAAIAIFSLGFIILGSLCVLLSLGKKRDYLLRPASMFYAFAGLCILVSVEVMRQSVKRMIDSEDTVWIEYYYSWSFACACAAFILLFLGGLALLLFSLPRMPRNPWESCMDAEPEH
B2: γ1 (T12G, I16A): γ1 double mutant containing the complete GXXXA motif in TM1 (protein, UniProt Q06432 1-222, looked up, variant T12G I16A)
Voltage-dependent calcium …: B1 Voltage-dependent calcium … with I16A
B3: γ6S: rat calcium channel γ6 subunit, short isoform (AF361344), SEQ ID NO:49 (protein, listed as Rattus norvegicus)
chain: MMWSNFFMQEEDRRRTAVGRRRAQEQQNLGLTPEREGKIKLGLLVAIVGATLAVLAVGTEFWVELNTYKTNGSAVCEAAHLGLWKVCIKRLWQADVPAGRETCGPAELPGEANCTYFKFFTTGENAHIFQRTTKKGLLLFVSLEVFRHSVRALLQGVNPETPPAPRLAYEYSWSLGCGVGAGLILLLGGVCFLLLTLPSWPWRSLCPKRGGPTA

Assays:
Assay type in all cases: cell-based
Cav3.1 [1] = target: T1, Cav3.1 (Homo sapiens, UniProt O43497); test: Whole-cell patch clamp of Cav3.1 current in Cav3.1/HEK cells transfected with chimeras, truncations and point mutants (Example 6); conditions: FIG. 38, FIG. 41
T1 construct: expressed in transfected cells; host or cells: HEK-293, stably transfected
T1 sequence (O43497 whole entry, the tested form may be a part): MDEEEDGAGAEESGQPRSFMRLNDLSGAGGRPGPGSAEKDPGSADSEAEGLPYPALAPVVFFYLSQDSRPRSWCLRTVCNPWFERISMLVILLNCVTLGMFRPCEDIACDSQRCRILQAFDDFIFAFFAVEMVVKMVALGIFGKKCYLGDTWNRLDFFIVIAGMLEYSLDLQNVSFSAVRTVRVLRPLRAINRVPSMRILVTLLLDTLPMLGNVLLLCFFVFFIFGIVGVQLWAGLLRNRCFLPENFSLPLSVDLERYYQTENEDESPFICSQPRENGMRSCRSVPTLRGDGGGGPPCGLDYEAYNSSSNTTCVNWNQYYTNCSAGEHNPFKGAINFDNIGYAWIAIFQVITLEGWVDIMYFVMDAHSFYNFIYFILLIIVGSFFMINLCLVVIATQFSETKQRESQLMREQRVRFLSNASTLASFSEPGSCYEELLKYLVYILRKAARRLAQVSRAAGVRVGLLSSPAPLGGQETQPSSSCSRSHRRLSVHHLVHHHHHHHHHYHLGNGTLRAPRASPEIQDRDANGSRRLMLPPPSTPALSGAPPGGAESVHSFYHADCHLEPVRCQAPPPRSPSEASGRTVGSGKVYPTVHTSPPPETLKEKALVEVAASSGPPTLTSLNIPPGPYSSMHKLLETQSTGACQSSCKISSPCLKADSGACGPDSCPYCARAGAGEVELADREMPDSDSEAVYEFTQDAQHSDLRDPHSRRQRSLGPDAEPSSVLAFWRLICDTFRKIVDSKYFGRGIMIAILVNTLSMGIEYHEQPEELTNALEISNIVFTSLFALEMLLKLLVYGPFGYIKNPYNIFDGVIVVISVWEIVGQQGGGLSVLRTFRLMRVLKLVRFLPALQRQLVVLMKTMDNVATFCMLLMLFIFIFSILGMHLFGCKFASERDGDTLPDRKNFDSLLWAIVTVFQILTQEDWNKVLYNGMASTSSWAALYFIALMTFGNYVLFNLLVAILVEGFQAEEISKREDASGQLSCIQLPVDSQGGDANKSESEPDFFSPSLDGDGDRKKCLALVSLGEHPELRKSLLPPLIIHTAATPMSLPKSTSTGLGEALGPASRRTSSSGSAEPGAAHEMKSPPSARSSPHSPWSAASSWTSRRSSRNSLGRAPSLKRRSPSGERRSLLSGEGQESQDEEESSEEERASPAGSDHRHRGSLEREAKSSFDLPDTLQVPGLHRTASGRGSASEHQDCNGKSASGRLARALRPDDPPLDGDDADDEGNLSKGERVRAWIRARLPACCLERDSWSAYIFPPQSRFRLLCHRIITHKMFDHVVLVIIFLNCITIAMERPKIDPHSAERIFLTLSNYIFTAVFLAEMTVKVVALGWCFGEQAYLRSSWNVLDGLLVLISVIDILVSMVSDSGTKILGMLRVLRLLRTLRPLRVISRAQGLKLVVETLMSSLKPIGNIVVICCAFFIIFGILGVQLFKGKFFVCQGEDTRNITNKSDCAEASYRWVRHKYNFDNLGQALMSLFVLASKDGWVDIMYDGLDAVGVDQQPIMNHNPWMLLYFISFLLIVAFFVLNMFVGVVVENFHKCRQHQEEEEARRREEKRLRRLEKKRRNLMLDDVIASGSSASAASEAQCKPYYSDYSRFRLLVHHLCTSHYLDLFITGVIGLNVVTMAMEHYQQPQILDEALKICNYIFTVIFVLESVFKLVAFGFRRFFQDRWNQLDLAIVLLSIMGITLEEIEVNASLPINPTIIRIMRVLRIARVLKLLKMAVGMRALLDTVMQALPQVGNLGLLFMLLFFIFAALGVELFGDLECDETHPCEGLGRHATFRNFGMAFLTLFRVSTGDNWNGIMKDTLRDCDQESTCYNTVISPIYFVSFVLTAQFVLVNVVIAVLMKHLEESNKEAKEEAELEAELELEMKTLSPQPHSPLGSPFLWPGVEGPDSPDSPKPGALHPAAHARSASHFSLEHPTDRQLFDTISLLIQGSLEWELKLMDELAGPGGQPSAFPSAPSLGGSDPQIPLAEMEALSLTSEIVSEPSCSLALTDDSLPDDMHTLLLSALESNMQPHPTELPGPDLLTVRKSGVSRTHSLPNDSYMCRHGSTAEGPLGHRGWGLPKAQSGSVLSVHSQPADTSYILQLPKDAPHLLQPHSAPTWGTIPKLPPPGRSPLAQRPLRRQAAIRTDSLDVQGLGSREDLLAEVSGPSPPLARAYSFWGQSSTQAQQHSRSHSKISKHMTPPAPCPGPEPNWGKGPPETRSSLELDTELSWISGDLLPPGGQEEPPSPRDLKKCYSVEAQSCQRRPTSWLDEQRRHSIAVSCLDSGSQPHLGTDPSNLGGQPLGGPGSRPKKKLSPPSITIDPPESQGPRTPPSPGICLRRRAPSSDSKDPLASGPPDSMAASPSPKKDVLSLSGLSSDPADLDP
Experimental: Transfection. HEK-293 cells stably transfected with either Cav3.1 or Cav3.2 were transiently transfected, at 50% confluency, with a bicistronic vector encoding both GFP and γ subunit cDNA's using Lipofectamine 2000 reagent (Invitrogen, Carlsbad, Calif.) as per the manufacturer's recommendations. Cells were visualized using an Nikon inverted microscope with an FITC filter.
Electrophysiology. Whole cell Ca^2+ currents were recorded using an Axon Instruments Axopatch-1D amplifier and Clampex 8.0 software. Pipettes were made from boroscillicate glass and had typical resistances of 2-4 Mohms. The pipette solution contained (in mM) 130 NaCl, 10 EGTA, 2 or 5 MgCl2, 1 CaCl2, 10 HEPES, 3 Tris-ATP, and 0.3 Li2GTP. Two different bath solutions were used. The first, used for experiments with γ subunit chimeras, contained (in mM) 130 NaCl, 1 MgCl2, 2 CaCl2, 10 glucose, 10 HEPES, and 0.03 TTX. The second, used for experiments with γ subunit containg point mutations, contained (in mM) 137 NaCl, 1 KCl, 1 MgCl2, 0.33 NaH2PO4, 2 CaCl2, 10 HEPES. All solutions were adjusted to pH 7.4 with NaOH and 280 mOsm with sucrose. No Cl^− currents were evident in any HEK-293 cells line, stably transfected or not, and no attempt was made to eliminate Cl^− currents from data records.
All electrophysiological data are from current records in which voltage offset was adjusted, pipette capacitance and whole cell capacitance were compensated and series resistance was compensated to >80%. Currents were filtered at 10 kHz and recorded at 40 kHz. In some cases, current records were off-line filtered at 1K. Current voltage relationships were recorded using an on-line P/−4 subtraction procedure to eliminate linear capacitative and leakage currents. Only recordings with less than 50 pA leakage current were used.
Several different protocols were used to determine the biophysical characteristics of currents in HEK-293 cells. The voltage dependence of activation was determined using “tail” currents. Cells were depolarized from a holding potential of −100 mV to test potentials ranging from −90 mV to +60 mV. Pulse durations varied and corresponded to the time to peak current measured at the corresponding test potentials. Following the conditioning pulse cells were re-polarized to −60 mV and the amplitude of the resulting “tail” current measured. The voltage dependence of inactivation was measured by depolarizing the cells to voltages ranging from −120 mV to 50 mV for 500 ms to inactivate the Ca^2+ channels. After this conditioning step the membrane was returned to the holding potential (−100 mV) for 3 ms and then depolarized a second time to +20 mV for 150 ms during which time the peak current was measured. Time constants for inactivation were measured by fitting a single exponential equation to the decay phase of currents elicited by voltage steps from −50 to +30 mV from a holding potential of −100 mV. Time constants for deactivation were measured by fitting either a single or a double exponential to the decay phase of tail currents.
To account for the inherent variation in calcium current density in the HEK-Cav3.1 stable cell line the averaged current density of each test group of cells was normalized to the mean current density of a control group of cells. A minimum of 5 cells (typically 7 to 10) from each group was used to calculate the mean current densities of test and control cells. At least two independent transfections were performed for each test condition. […]

Cav3.1 [2] = target: T1, Cav3.1; test: Whole-cell patch clamp of Cav3.1 dependent LVA calcium current in HEK-293/Cav3.1 cells transiently transfected with γ subunits (Example 1)
Experimental: 2.3. Transfection. Untransfected HEK-293 cells, HEK-293 cell lines stably transfected with Cav3.1, and HL-1 cells were transiently transfected with vectors containing γ subunit, GFP, and modified CFP cDNAs using Lipofectamine 2000 reagent (InVitrogen) as per the manufacturer's recommendations. HEK-293 cells were grown to 70-80% confluence before transfection. HL-1 cells were grown to 50-75% confluence before transfection.
2.4. Electrophysiology. Whole-cell calcium currents were recorded using an Axopatch-1 D patch clamp system and Clampex 8.0 software. Pipettes were fabricated from borosilicate glass and had typical resistances of 2-4 MΩ. The pipette solution contained (in mM): 130 NaCl, 10 EGTA, 2 MgCl2, 1 CaCl2, 10 HEPES, 3 Tris-ATP, and either 0.3 Li2GTP or 0.3 Tris-GTP, adjusted to pH 7.4 with NaOH and 280 mOsm with sucrose. The bath solution contained (in mM): 137 NaCl (for HEK-293 experiments) or 120 TEACl (for HL-1 experiments), 1 KCl, 1 MgCl2, 0.33 NaH2PO4, 2 CaCl2 (for HEK-293 experiments) or 5 CaCl2 (for HL-1 experiments), 10 glucose (for HL-1 experiments only), 10 HEPES, and 30 μM TTX (for HEK-293 experiments only), adjusted to pH 7.4 with NaOH (for HEK-293 experiments) or TEAOH (for HL-1 experiments) and 280 mOsm with sucrose. NaCl was used as the major salt in the pipette solution order to eliminate any outward K+ currents.
Recordings from HEK-293 cells were made 48-96 h posttransfection, at which time expression, as measured by GFP fluorescence, peaked. HL-1 cells were used for recording 24-36 h post-transfection. Current densities in HEK-293/Cav3.1 cell experiments were normalized to control for variation in current expression in the different frozen stocks of stable cell lines used. […] HL-1 experiments were performed using a single stock of cells. All HEK-293 data are from current records in which pipette and whole-cell capacitance were about 100% compensated and series resistance was compensated to >80%. Whole-cell capacitance and series resistance were not compensated for HL-1 recordings as currents were typically <100 pA. Series resistance values were typically <10 MX, and no records were used in which the voltage error (as defined by Ver=Imax×Ra) was greater than 5 mV. The holding potential of all protocols used for HEK-293 cells was −100 mV except for steady-state inactivation protocols where the holding potential was −120 mV. The holding potential for protocols used for HL-1 cells was −90 mV. Current-voltage relationships for all HEK-293 and HL-1 cells were measured using 50 ms test depolarizations. Peak current amplitudes for activation curves were determined by fitting tail currents, elicited by stepping membrane voltage from varying test potentials to −60 mV, with the Boltzman equation. Test potential steps for activation protocols were of varied durations, corresponding to the time to peak of the elicited current. Inactivation curves were determined by fitting peak amplitudes of currents, observed in a test pulse to −20 mV, following 500 ms steps to varying potentials, with the Boltzman equation. Time to peak was determined using the current-voltage protocol described above. Inactivation time constants were determined by fitting the decay phase of currents to an exponential equation and deactivation time constants were determined by fitting the decay phase of tail currents to an exponential equation. […] Currents were recorded at 40 kHz and on-line filtered at either 5 or 10 kHz. In some cases currents were off-line filtered at 1 kHz to further reduce noise. Current/voltage relationships and tail currents were recorded from HEK cells using an on-line P/−4 subtraction procedure. Calcium currents recorded from HL-1 cells were off-line leak subtracted. The average membrane capacitance of untransfected HEK-293 cells in pilot experiments was 12.5±1.4 pF (n=8). […]

Cav3.1 [3] = target: T1, Cav3.1; test: Whole-cell patch clamp of Cav3.1 LVA current in HEK/Cav3.1 cells transfected with γ6/γ4 chimeric and truncated constructs (Example 2); conditions: Table 1 (Example 2)
Experimental: Transfection—HEK-293 cell lines stably transfected with Cav3.1 were transiently transfected with vectors containing γ subunit cDNAs using Lipofectamine 2000 reagent (Invitrogen) as per the manufacturer's recommendations. HEK-293 cells were grown to 70-80% confluence before transfection.
Electrophysiology—Whole-cell calcium currents were recorded using an Axopatch-1D patch clamp system and Clampex 8.0 software. Pipettes were fabricated from borosilicate glass and had typical resistances of 2-4 MΩ. The pipette solution contained (in mM): 130 NaCl, 10 EGTA, 2 MgCl2, 1 CaCl2, 10 HEPES, 3 Tris-ATP, and 0.3 Tris-GTP, adjusted to pH 7.4 with NaOH and 280 mOsm with sucrose. The bath solution contained (in mM): 137 NaCl, 1 KCl, 1 MgCl2, 0.33 NaH2PO4, 2 CaCl2, 10 HEPES, and 30 μM TTX, adjusted to pH 7.4 with NaOH and 280 mOsm with sucrose.
Recordings from HEK-293 cells were made 48-96 hours post-transfection, at which time expression, as measured by GFP fluorescence, peaked. All HEK-293 data is from current records in which pipette and whole-cell capacitance were about 100% compensated and series resistance was compensated to >80%. Series resistance values were typically <10 MΩ (megaohms), and no records were used in which the voltage error (as defined by Ver=Imax×Ra) was greater than 5 mV. The holding potential of all protocols used for HEK-293 cells was −100 mV except for steady-state inactivation protocols where the holding potential was −120 mV. Current-voltage relationships for all HEK-293 cells were measured using 50 ms test depolarizations. Peak current amplitudes for activation curves were determined by fitting tail currents, elicited by stepping membrane voltage from varying test potentials to −60 mV, with the Boltzman equation. Test potential steps for activation protocols were of varied durations, corresponding to the time to peak of the elicited current. Inactivation curves were determined by fitting peak amplitudes of currents, observed in a test pulse to −20 mV, following 500 ms steps to varying potentials, with the Boltzman equation. Time to peak was determined using the current-voltage protocol described above. Inactivation time constants were determined by fitting the decay phase of currents to an exponential equation and deactivation time constants were determined by fitting the decay phase of tail currents to an exponential equation. […] When a double exponential equation was used to fit Cav3.1 tail currents, the magnitude of the fast component was about 10 fold that of the slow component. Currents were recorded at 40 kHz and on-line filtered at 5. In some cases currents were off-line filtered at 1 kHz to further reduce noise. Current-voltage relationships and tail currents were recorded from HEK cells using an on-line P/−4 subtraction procedure. The average membrane capacitance of untransfected HEK-293 cells in pilot experiments was 12.5+/−0.4 pF (n=8).
Statistical Analysis—All data are reported as mean±SEM and tested for significance by one-way ANOVA. A value of P<0.05 was considered significant and when significant p-values were encountered groups were compared using the Tukey post-hoc test.

Molecule	Effect on Cav3.1 calcium current density (Cav3.1 [1])	Effect on current kinetics or voltage dependency (Cav3.1 [2]; HEK-293/Cav3.1)	Peak current density, % of control value (Cav3.1 [2]; HEK-293/Cav3.1, normalized to adCGI vector control, mean±S.E.M.)	Activation V 0.5 (Cav3.1 [2]; Table 2)	Activation k (Cav3.1 [2]; Table 2)	Deactivation tau @ −100 mV, Fast (Cav3.1 [2]; Table 2)	Inactivation Tau @ −20 mV (Cav3.1 [2]; Table 2)	Inactivation V 0.5 (Cav3.1 [2]; Table 2)	Inactivation k (Cav3.1 [2]; Table 2)	Time to peak @ −20 mV (Cav3.1 [2]; Table 2)	V peak (Cav3.1 [2]; Table 2)	Decrease in Cav3.1 current density (Cav3.1 [2]; co-expression with Cav3.1 in HEK-293 cells) [%]	Activation V 0.5 (Cav3.1 [3])	Activation k (Cav3.1 [3])	Deactivation tau @ −100 mV, Fast (Cav3.1 [3])	Inactivation V 0.5 (Cav3.1 [3])	Inactivation k (Cav3.1 [3])	Inactivation tau @−20 mV (Cav3.1 [3])	Time to peak @ −20 mV (Cav3.1 [3])	V peak (Cav3.1 [3])
B1	no effect																			
B2	significantly inhibited																			
B3		did not alter current kinetics or voltage dependency	31%±13%	−36.3 ± 6.2 (n = 4) mV	12.7 ± 1.5 (n = 4)	1.20 ± 0.06 (n = 3) ms	22.9 ± 0.7 (n = 2) ms	−72.0 ± 5.9 (n = 3) mV	5.9 ± 0.7 (n = 3)	6.4 ± 0.5 (n = 3) ms	−27.0 ± 2.5 (n = 5) mV	69	−36.3 ± 6.2 (n = 4) mV	12.7 ± 1.5 (n = 4)	1.20 ± 0.06 (n = 3) ms	−72.0 ± 5.9 (n = 3) mV	5.9 ± 0.7 (n = 3)	22.9 ± 0.7 (n = 2) ms	6.4 ± 0.5 (n = 3) ms	−27.0 ± 2.5 (n = 5) mV

Reference: patent US8022177B2, “Peptides and calcium regulation in mammalian cells” (The Board of Trustees of the University of Illinois, priority 2005, dated 2011)
